Measurements reported in PMC4862330.

Target: F-actin (polymerized rabbit skeletal muscle G-actin) (rabbit) (UniProt P68135)
Test: co-sedimentation

percent decrease in F-actin binding compared with wild type: 60%
Substance: talin ABS2 6× mutant (K922E/Q923E/Q930E/K1500E/R1510E/K1522E) (from UniProt P26039 1-2541) (domain or fragment)
